What was measured:
[1] = target: His-tagged recombinant human SMN protein (ProteinTech, catalog # ag14333) (human) (UniProt Q16637); test: Erenna sandwich assay, capture MABE230 12.5 µg/mg MPs; Det Ab 500 ng/mL; SMN 0.93 pg/mL
[2] = target: His-tagged recombinant human SMN protein (ProteinTech, catalog # ag14333) (human) (UniProt Q16637); test: Erenna sandwich assay, capture MABE230 12.5 µg/mg MPs; Det Ab 500 ng/mL; SMN 200.00 pg/mL
[3] = target: His-tagged recombinant human SMN protein (ProteinTech, catalog # ag14333) (human) (UniProt Q16637); test: Erenna sandwich assay, capture MABE230 12.5 µg/mg MPs; Det Ab 500 ng/mL; SMN 22.22 pg/mL
[4] = target: His-tagged recombinant human SMN protein (ProteinTech, catalog # ag14333) (human) (UniProt Q16637); test: Erenna sandwich assay, capture MABE230 12.5 µg/mg MPs; Det Ab 500 ng/mL; SMN 0.12 pg/mL
[5] = target: His-tagged recombinant human SMN protein (ProteinTech, catalog # ag14333) (human) (UniProt Q16637); test: Erenna sandwich assay, capture MABE230 12.5 µg/mg MPs; Det Ab 500 ng/mL; SMN 1.85 pg/mL
[6] = target: His-tagged recombinant human SMN protein (ProteinTech, catalog # ag14333) (human) (UniProt Q16637); test: Erenna sandwich assay, capture MABE230 12.5 µg/mg MPs; Det Ab 500 ng/mL; SMN 0.23 pg/mL
[7] = target: His-tagged recombinant human SMN protein (ProteinTech, catalog # ag14333) (human) (UniProt Q16637); test: Erenna sandwich assay, capture MABE230; SMN 2 pg/mL, MPs 10 µg/well, Det Ab 1000 ng/mL, Cap Ab/MP 12.5 µg/mg
[8] = target: His-tagged recombinant human SMN protein (ProteinTech, catalog # ag14333) (human) (UniProt Q16637); test: Erenna sandwich assay, capture MABE230 12.5 µg/mg MPs; Det Ab 1000 ng/mL; SMN 3.70 pg/mL
[9] = target: His-tagged recombinant human SMN protein (ProteinTech, catalog # ag14333) (human) (UniProt Q16637); test: Erenna sandwich assay, capture MABE230; human CSF sample 2 spiked with recombinant SMN 10.0 pg/mL (endogenous SMN also present)
[10] = target: His-tagged recombinant human SMN protein (ProteinTech, catalog # ag14333) (human) (UniProt Q16637); test: Erenna sandwich assay, capture MABE230 12.5 µg/mg MPs; Det Ab 1000 ng/mL; SMN 0.23 pg/mL
[11] = target: His-tagged recombinant human SMN protein (ProteinTech, catalog # ag14333) (human) (UniProt Q16637); test: Erenna sandwich assay, capture MABE230 12.5 µg/mg MPs; Det Ab 500 ng/mL; SMN 7.41 pg/mL
[12] = target: His-tagged recombinant human SMN protein (ProteinTech, catalog # ag14333) (human) (UniProt Q16637); test: Erenna sandwich assay, capture MABE230; SMN 2 pg/mL, MPs 10 µg/well, Det Ab 50 ng/mL, Cap Ab/MP 12.5 µg/mg
[13] = target: His-tagged recombinant human SMN protein (ProteinTech, catalog # ag14333) (human) (UniProt Q16637); test: Erenna sandwich assay, capture MABE230; human CSF sample 5 spiked with recombinant SMN 5.0 pg/mL (endogenous SMN also present)
[14] = target: endogenous SMN protein in human CSF (human) (UniProt Q16637); test: Erenna sandwich assay, capture MABE230; human CSF sample 4, unspiked (endogenous SMN only)
[15] = target: His-tagged recombinant human SMN protein (ProteinTech, catalog # ag14333) (human) (UniProt Q16637); test: Erenna sandwich assay, capture MABE230 12.5 µg/mg MPs; Det Ab 500 ng/mL; SMN 3.70 pg/mL
[16] = target: His-tagged recombinant human SMN protein (ProteinTech, catalog # ag14333) (human) (UniProt Q16637); test: Erenna sandwich assay, capture MABE230 12.5 µg/mg MPs; Det Ab 1000 ng/mL; SMN 0.93 pg/mL
[17] = target: endogenous SMN protein in human CSF (human) (UniProt Q16637); test: Erenna sandwich assay, capture MABE230; human CSF sample 3, unspiked (endogenous SMN only)
[18] = target: His-tagged recombinant human SMN protein (ProteinTech, catalog # ag14333) (human) (UniProt Q16637); test: Erenna sandwich assay, capture MABE230 12.5 µg/mg MPs; Det Ab 1000 ng/mL; SMN 7.41 pg/mL
[19] = target: His-tagged recombinant human SMN protein (ProteinTech, catalog # ag14333) (human) (UniProt Q16637); test: Erenna sandwich assay, capture MABE230; SMN 2 pg/mL, MPs 5 µg/well, Det Ab 1000 ng/mL, Cap Ab/MP 25 µg/mg
[20] = target: His-tagged recombinant human SMN protein (ProteinTech, catalog # ag14333) (human) (UniProt Q16637); test: Erenna sandwich assay, capture MABE230 12.5 µg/mg MPs; Det Ab 500 ng/mL; SMN 66.67 pg/mL
[21] = target: His-tagged recombinant human SMN protein (ProteinTech, catalog # ag14333) (human) (UniProt Q16637); test: Erenna sandwich assay, capture MABE230; human CSF sample 3 spiked with recombinant SMN 10.0 pg/mL (endogenous SMN also present)

detected events (DE) (detected events) [1]: 967 | event photons (EP) (event photons) [1]: 135000 | detected events (DE) (detected events) [2]: 9460 | event photons (EP) (event photons) [2]: 1.86e+07 | detected events (DE) (detected events) [3]: 12200 | event photons (EP) (event photons) [3]: 3.85e+06 | detected events (DE) (detected events) [4]: 154 | event photons (EP) (event photons) [4]: 19500 | detected events (DE) (detected events) [5]: 1850 | event photons (EP) (event photons) [5]: 267000 | detected events (DE) (detected events) [6]: 301 | event photons (EP) (event photons) [6]: 40000 | detected events (DE) (detected events) [7]: 2920 | detected events (DE) (detected events) [8]: 4330 | event photons (EP) (event photons) [8]: 706000 | detected events (DE) (detected events) [9]: 9630 | detected events (DE) (detected events) [10]: 330 | event photons (EP) (event photons) [10]: 44800 | detected events (DE) (detected events) [11]: 5960 | event photons (EP) (event photons) [11]: 1.05e+06 | detected events (DE) (detected events) [12]: 681 | detected events (DE) (detected events) [13]: 6070 | detected events (DE) (detected events) [14]: 375 | detected events (DE) (detected events) [15]: 3190 | event photons (EP) (event photons) [15]: 497000 | detected events (DE) (detected events) [16]: 1170 | event photons (EP) (event photons) [16]: 171000 | detected events (DE) (detected events) [17]: 278 | detected events (DE) (detected events) [18]: 7200 | event photons (EP) (event photons) [18]: 1.32e+06 | detected events (DE) (detected events) [19]: 2180 | detected events (DE) (detected events) [20]: 12000 | event photons (EP) (event photons) [20]: 9.53e+06 | detected events (DE) (detected events) [21]: 9140
Substance: ProteinTech anti-SMN2 (catalog #60154-1-Ig) (antibody)

From patent US20170363643A1
